Reference: publication doi:10.1101/2020.04.30.069369

Key:
[1] = target: Streptococcus thermophilus Rgg3 (S. thermophilus); test: cryo-EM structure
[2] = target: Streptococcus dysgalactiae Rgg2 (S. dysgalactiae); test: crystal structure
Rgg3St = target: T1, Rgg3St (Streptococcus thermophilus, UniProt Q5M4D0 1-284); test: X-ray crystallography
T1 sequence: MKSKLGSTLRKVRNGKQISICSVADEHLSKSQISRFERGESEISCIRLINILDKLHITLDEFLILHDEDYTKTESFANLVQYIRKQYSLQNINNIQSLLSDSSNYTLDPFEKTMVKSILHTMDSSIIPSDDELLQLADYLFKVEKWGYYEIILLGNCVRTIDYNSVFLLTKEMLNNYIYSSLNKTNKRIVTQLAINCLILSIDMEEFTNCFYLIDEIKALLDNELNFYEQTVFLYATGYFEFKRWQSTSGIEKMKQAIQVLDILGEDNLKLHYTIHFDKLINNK

Streptococcus thermophilus Rgg3 (natural protein)
stoichiometry N [1]: 2

Streptococcus dysgalactiae Rgg2 (natural protein)
stoichiometry N [2]: 2

B1: Rgg3 box (pSHP3DNA) (dsDNA)
DNA 1: CATAATTTTCCCATTTCCCCAACAAAAAAG
DNA 2: TTTTTGTTGGGGAAATGGGAAAATTATGCT
binding result (Rgg3St): binds
